Measurements published in paper PMC11073571, “Functional and in silico analysis of ATP8A2 and other P4-ATPase variants associated with human genetic diseases” (Disease Models & Mechanisms, 2024).

Substrate: CCCCCCCC/C=C\CCCCCCCC(=O)OC[C@H](COP(=O)(O)OC[C@H](N)C(=O)O)OC(=O)CCCCCCC/C=C\CCCCCCCC
Assay: colorimetric phosphate-release ATPase assay, Michaelis-Menten fit
Format: biochemical, Homo sapiens
Conditions: PS activation constant (not association constant), 5 mM ATP, DOPC:DOPS mixtures at 2.5 mg/ml total lipid, 10 mM CHAPS, 12.5 mM MgCl2, pH 7.5, 37°C

Protein | K0.5 [µM]
ATP8A2-CDC50A complex (Homo sapiens) (protein, heterodimer; with Cell cycle control protein 50A) MLNGAGLDKALKMSLPRRSRIRSSVGPVRSSLGYKKAEDEMSRATSVGDQLEAPARTIYLNQPHLNKFRDNQISTAKYSVLTFLPRFLYEQIRRAANAFFLFIALLQQIPDVSPTGRYTTLVPLIIILTIAGIKEIVEDFKRHKADNAVNKKKTIVLRNGMWHTIMWKEVAVGDIVKVVNGQYLPADVVLLSSSEPQAMCYVETANLDGETNLKIRQGLSHTADMQTREVLMKLSGTIECEGPNRHLYDFTGNLNLDGKSLVALGPDQILLRGTQLRNTQWVFGIVVYTGHDTKLMQNSTKAPLKRSNVEKVTNVQILVLFGILLVMALVSSAGALYWNRSHGEKNWYIKKMDTTSDNFGYNLLTFIILYNNLIPISLLVTLEVVKYTQALFINWDTDMYYIGNDTPAMARTSNLNEELGQVKYLFSDKTGTLTCNIMNFKKCSIAGVTYGHFPELAREPSSDDFCRMPPPCSDSCDFDDPRLLKNIEDRHPTAPCIQEFLTLLAVCHTVVPEKDGDNIIYQASSPDEAALVKGAKKLGFVFTARTPFSVIIEAMGQEQTFGILNVLEFSSDRKRMSVIVRTPSGRLRLYCKGADNVIFERLSKDSKYMEETLCHLEYFATEGLRTLCVAYADLSENEYEEWLKVYQEASTILKDRAQRLEECYEIIEKNLLLLGATAIEDRLQAGVPETIATLLKAEIKIWVLTGDKQETAINIGYSCRLVSQNMALILLKEDSLDATRAAITQHCTDLGNLLGKENDVALIIDGHTLKYALSFEVRRSFLDLALSCKAVICCRVSPLQKSEIVDVVKKRVKAITLAIGDGANDVGMIQTAHVGVGISGNEGMQATNNSDYAIAQFSYLEKLLLVHGAWSYNRVTKCILYCFYKNVVLYIIELWFAFVNGFSGQILFERWCIGLYNVIFTALPPFTLGIFERSCTQESMLRFPQLYKITQNGEGFNTKVFWGHCINALVHSLILFWFPMKALEHDTVLTSGHATDYLFVGNIVYTYVVVTVCLKAGLETTAWTKFSHLAVWGSMLTWLVFFGIYSTIWPTIPIAPDMRGQATMVLSSAHFWLGLFLVPTACLIEDVAWRAAKHTCKKTLLEEVQELETKSRVLGKAVLRDSNGKRLNERDRLIKRLGRKTPPTLFRGSSLQQGVPHGYAFSQEEHGAVSQEEVIRAYDTTKKKSRKK | 14.3 ± 4.3
ATP8A2-CDC50A complex (Homo sapiens; E459Q) (protein, heterodimer; with Cell cycle control protein 50A) MLNGAGLDKALKMSLPRRSRIRSSVGPVRSSLGYKKAEDEMSRATSVGDQLEAPARTIYLNQPHLNKFRDNQISTAKYSVLTFLPRFLYEQIRRAANAFFLFIALLQQIPDVSPTGRYTTLVPLIIILTIAGIKEIVEDFKRHKADNAVNKKKTIVLRNGMWHTIMWKEVAVGDIVKVVNGQYLPADVVLLSSSEPQAMCYVETANLDGETNLKIRQGLSHTADMQTREVLMKLSGTIECEGPNRHLYDFTGNLNLDGKSLVALGPDQILLRGTQLRNTQWVFGIVVYTGHDTKLMQNSTKAPLKRSNVEKVTNVQILVLFGILLVMALVSSAGALYWNRSHGEKNWYIKKMDTTSDNFGYNLLTFIILYNNLIPISLLVTLEVVKYTQALFINWDTDMYYIGNDTPAMARTSNLNEELGQVKYLFSDKTGTLTCNIMNFKKCSIAGVTYGHFPELARQPSSDDFCRMPPPCSDSCDFDDPRLLKNIEDRHPTAPCIQEFLTLLAVCHTVVPEKDGDNIIYQASSPDEAALVKGAKKLGFVFTARTPFSVIIEAMGQEQTFGILNVLEFSSDRKRMSVIVRTPSGRLRLYCKGADNVIFERLSKDSKYMEETLCHLEYFATEGLRTLCVAYADLSENEYEEWLKVYQEASTILKDRAQRLEECYEIIEKNLLLLGATAIEDRLQAGVPETIATLLKAEIKIWVLTGDKQETAINIGYSCRLVSQNMALILLKEDSLDATRAAITQHCTDLGNLLGKENDVALIIDGHTLKYALSFEVRRSFLDLALSCKAVICCRVSPLQKSEIVDVVKKRVKAITLAIGDGANDVGMIQTAHVGVGISGNEGMQATNNSDYAIAQFSYLEKLLLVHGAWSYNRVTKCILYCFYKNVVLYIIELWFAFVNGFSGQILFERWCIGLYNVIFTALPPFTLGIFERSCTQESMLRFPQLYKITQNGEGFNTKVFWGHCINALVHSLILFWFPMKALEHDTVLTSGHATDYLFVGNIVYTYVVVTVCLKAGLETTAWTKFSHLAVWGSMLTWLVFFGIYSTIWPTIPIAPDMRGQATMVLSSAHFWLGLFLVPTACLIEDVAWRAAKHTCKKTLLEEVQELETKSRVLGKAVLRDSNGKRLNERDRLIKRLGRKTPPTLFRGSSLQQGVPHGYAFSQEEHGAVSQEEVIRAYDTTKKKSRKK | 8.4 ± 3.1
ATP8A2-CDC50A complex (Homo sapiens; E459D) (protein, heterodimer; with Cell cycle control protein 50A) MLNGAGLDKALKMSLPRRSRIRSSVGPVRSSLGYKKAEDEMSRATSVGDQLEAPARTIYLNQPHLNKFRDNQISTAKYSVLTFLPRFLYEQIRRAANAFFLFIALLQQIPDVSPTGRYTTLVPLIIILTIAGIKEIVEDFKRHKADNAVNKKKTIVLRNGMWHTIMWKEVAVGDIVKVVNGQYLPADVVLLSSSEPQAMCYVETANLDGETNLKIRQGLSHTADMQTREVLMKLSGTIECEGPNRHLYDFTGNLNLDGKSLVALGPDQILLRGTQLRNTQWVFGIVVYTGHDTKLMQNSTKAPLKRSNVEKVTNVQILVLFGILLVMALVSSAGALYWNRSHGEKNWYIKKMDTTSDNFGYNLLTFIILYNNLIPISLLVTLEVVKYTQALFINWDTDMYYIGNDTPAMARTSNLNEELGQVKYLFSDKTGTLTCNIMNFKKCSIAGVTYGHFPELARDPSSDDFCRMPPPCSDSCDFDDPRLLKNIEDRHPTAPCIQEFLTLLAVCHTVVPEKDGDNIIYQASSPDEAALVKGAKKLGFVFTARTPFSVIIEAMGQEQTFGILNVLEFSSDRKRMSVIVRTPSGRLRLYCKGADNVIFERLSKDSKYMEETLCHLEYFATEGLRTLCVAYADLSENEYEEWLKVYQEASTILKDRAQRLEECYEIIEKNLLLLGATAIEDRLQAGVPETIATLLKAEIKIWVLTGDKQETAINIGYSCRLVSQNMALILLKEDSLDATRAAITQHCTDLGNLLGKENDVALIIDGHTLKYALSFEVRRSFLDLALSCKAVICCRVSPLQKSEIVDVVKKRVKAITLAIGDGANDVGMIQTAHVGVGISGNEGMQATNNSDYAIAQFSYLEKLLLVHGAWSYNRVTKCILYCFYKNVVLYIIELWFAFVNGFSGQILFERWCIGLYNVIFTALPPFTLGIFERSCTQESMLRFPQLYKITQNGEGFNTKVFWGHCINALVHSLILFWFPMKALEHDTVLTSGHATDYLFVGNIVYTYVVVTVCLKAGLETTAWTKFSHLAVWGSMLTWLVFFGIYSTIWPTIPIAPDMRGQATMVLSSAHFWLGLFLVPTACLIEDVAWRAAKHTCKKTLLEEVQELETKSRVLGKAVLRDSNGKRLNERDRLIKRLGRKTPPTLFRGSSLQQGVPHGYAFSQEEHGAVSQEEVIRAYDTTKKKSRKK | 19.3 ± 4.2
